From US7244431B2, “Allergy vaccines and their preparation” (priority 2000, dated 2007)

Tests used:
[1] = system: IgE antibodies in sera from birch pollen allergic patients; assay: ELISA detection of peptide- and rBet v 1-specific IgE antibodies; type: binding, human
In short: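 Sera from 60 birch pollen allergic patients (rhinoconjunctivitis and/or asthma; skin prick and CAP RAST characterized) plus one non-atopic individual, diluted 1:3, incubated overnight at 4 °C on coated plates. Bound IgE detected with 1:1000 alkaline-phosphatase-coupled mouse anti-human IgE.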

[2] = system: basophilic granulocytes of birch pollen allergic individuals; assay: Basophil histamine-release assay; type: cell-based, human; details: 10^−3-10 μg/ml
Protocol: Granulocytes were isolated from heparinized blood samples of 3 birch pollen allergic individuals by dextran sedimentation (Valent, P. et al. (1989) Interleukin 3 activates human blood basophils via high-affinity binding sites. Proc. Natl. Sci. USA 86, 5542-5547). […] Histamine released in the cell-free culture supernatant was measured by radioimmunoassay (Immunotech, Marseille, France). Total histamine was determined after freezing and thawing of cells.

[3] = system: birch pollen allergic patients; assay: Skin prick testing of allergic patients; type: in vivo, human
Protocol: SPTs were performed on the individuals forearms as described ([…]. et al. (1997) J. Clin Invest. 99, 1673-168; Dreborg S: (1989) J. Am. Acad. DerMatol. 21, 820-821). […] In addition standardized skin prick solutions (birch pollen extract and histamine) (Allergopharma, Reinbek, Germany) were tested. Reactions were recorded 20 minutes after SPT by photography and by transferring the ballpoint pen-surrounded wheal area with a scotch tape to paper.

[4] = all 60 birch pollen allergic patients

B1: rBet v 1: purified recombinant Bet v 1, major birch pollen allergen, purchased from BIOMAY (protein)
chain: GVFNYETETTSVIPAARLFKAFILDGDNLFPKVAPQAISSVENIEGNGGPGTIKKISFPEGFPFKYVKDRVDEVDHTNFKYNYSVIEGGPIGDTLEKISNEIKIVATPDGGSILKISNKYHTKGDHEVKAEQVKASKEMGETLLRAVESYLLAHSDAYN
- rBet v1-specific IgE antibodies, mean [1, 4]: 1.416 OD units
- rBet v1-specific IgE antibodies, range [1, 4]: 0.081-2.530 OD units
- IgE (OD) ([1]; serum of NHS, non-allergic control individual): 0.048 OD
- IgE (OD) ([1]; serum of patient 1): 0.829 OD
- IgE (OD) ([1]; serum of patient 2): 1.380 OD
- IgE (OD) ([1]; serum of patient 3): 2.144 OD
- IgE (OD) ([1]; serum of patient 4): 0.701 OD
- IgE (OD) ([1]; serum of patient 5): 0.344 OD
- IgE (OD) ([1]; serum of patient 6): 2.300 OD
- IgE (OD) ([1]; serum of patient 7): 2.245 OD
- IgE (OD) ([1]; serum of patient 9): 0.196 OD
- IgE (OD) ([1]; serum of patient 10): 0.097 OD
- IgE (OD) ([1]; serum of patient 11): 0.428 OD
- IgE (OD) ([1]; serum of patient 12): 0.271 OD
- IgE (OD) ([1]; serum of patient 13): 0.281 OD
- IgE (OD) ([1]; serum of patient 14): 0.704 OD
- IgE (OD) ([1]; serum of patient 20): 0.249 OD
- IgE (OD) ([1]; serum of patient 21): 0.461 OD
- IgE (OD) ([1]; serum of patient 22): 0.258 OD
- IgE (OD) ([1]; serum of patient 23): 1.555 OD
- IgE (OD) ([1]; serum of patient 25): 0.5 OD
- IgE (OD) ([1]; serum of patient 26): 0.191 OD
- IgE (OD) ([1]; serum of patient 27): 0.535 OD
- IgE (OD) ([1]; serum of patient 28): 0.492 OD
- IgE (OD) ([1]; serum of patient 29): 0.154 OD
- IgE (OD) ([1]; serum of patient 30): 0.081 OD
- IgE (OD) ([1]; serum of patient 32): 0.195 OD
- IgE (OD) ([1]; serum of patient 33): 0.106 OD
- IgE (OD) ([1]; serum of patient 34): 0.377 OD
- IgE (OD) ([1]; serum of patient 36): 0.306 OD
- IgE (OD) ([1]; serum of patient 38): 1.571 OD
- IgE (OD) ([1]; serum of patient 40): 0.084 OD
- IgE (OD) ([1]; serum of patient 43): 0.363 OD
- IgE (OD) ([1]; serum of patient 44): 2.386 OD
- IgE (OD) ([1]; serum of patient 45): 0.289 OD
- IgE (OD) ([1]; serum of patient 47): 0.381 OD
- IgE (OD) ([1]; serum of patient 48): 1.422 OD
- IgE (OD) ([1]; serum of patient 49): 0.379 OD
- IgE (OD) ([1]; serum of patient 51): 0.307 OD
- IgE (OD) ([1]; serum of patient 54): 1.310 OD
- IgE (OD) ([1]; serum of patient 55): 2.489 OD
- IgE (OD) ([1]; serum of patient 56): 2.530 OD
- IgE (OD) ([1]; serum of patient 57): 0.741 OD
- IgE (OD) ([1]; serum of patient 58): 0.072 OD
- IgE (OD) ([1]; serum of patient 59): 0.168 OD
- induction of histamine release [2]: dose-dependent release of histamine
- concentration inducing immediate type skin reactions in three patients (#1-3) ([3]; human, in vivo): < 0.78 µg/mL
- concentration sufficient to induce wheal reactions in all five birch pollen allergic patients ([3]; human, in vivo): 3.12 µg/mL
- mean wheal diameter ([3]; individual 1, rBet v 1 0.39 μg/ml): 2.5 mm
- mean wheal diameter ([3]; individual 1, rBet v 1 0.78 μg/ml): 4 mm
- mean wheal diameter ([3]; individual 1, rBet v 1 1.56 μg/ml): 4.5 mm
- mean wheal diameter ([3]; individual 1, rBet v 1 3.12 μg/ml): 5 mm
- mean wheal diameter ([3]; individual 1, rBet v 1 6.25 μg/ml): 6 mm
- mean wheal diameter ([3]; individual 1, rBet v 1 12.5 μg/ml): 13 mm
- mean wheal diameter ([3]; individual 2, rBet v 1 0.39 μg/ml): 2 mm
- mean wheal diameter ([3]; individual 2, rBet v 1 0.78 μg/ml): 3.5 mm
- mean wheal diameter ([3]; individual 2, rBet v 1 1.56 μg/ml): 5 mm
- mean wheal diameter ([3]; individual 2, rBet v 1 3.12 μg/ml): 5.5 mm
- mean wheal diameter ([3]; individual 2, rBet v 1 6.25 μg/ml): 7 mm
- mean wheal diameter ([3]; individual 2, rBet v 1 12.5 μg/ml): 7.5 mm
- mean wheal diameter ([3]; individual 2, rBet v 1 25 μg/ml): 8 mm
- mean wheal diameter ([3]; individual 3, rBet v 1 0.78 μg/ml): 2 mm
- mean wheal diameter ([3]; individual 3, rBet v 1 1.56 μg/ml): 3 mm
- mean wheal diameter ([3]; individual 3, rBet v 1 3.12 μg/ml): 4 mm
- mean wheal diameter ([3]; individual 3, rBet v 1 6.25 μg/ml): 6 mm
- mean wheal diameter ([3]; individual 3, rBet v 1 12.5 μg/ml): 6.5 mm
- mean wheal diameter ([3]; individual 3, rBet v 1 25 μg/ml): 8 mm
- mean wheal diameter ([3]; individual 4, rBet v 1 3.12 μg/ml): 2 mm
- mean wheal diameter ([3]; individual 4, rBet v 1 6.25 μg/ml): 3 mm
- mean wheal diameter ([3]; individual 4, rBet v 1 12.5 μg/ml): 4 mm
- mean wheal diameter ([3]; individual 4, rBet v 1 25 μg/ml): 4.5 mm
- mean wheal diameter ([3]; individual 5, rBet v 1 1.56 μg/ml): 2 mm
- mean wheal diameter ([3]; individual 5, rBet v 1 3.12 μg/ml): 2.5 mm
- mean wheal diameter ([3]; individual 5, rBet v 1 6.25 μg/ml): 4 mm
- mean wheal diameter ([3]; individual 5, rBet v 1 12.5 μg/ml): 11 mm
- mean wheal diameter ([3]; individual 5, rBet v 1 25 μg/ml): 5 mm
